Data published in article PMC5577506, “Intrinsic disorder in the partitioning protein KorB persists after co-operative complex formation with operator DNA and KorA” (Biochemical Journal, 2017).

Columns and labels:
[1] = target: T1, KorB (ParB family protein from the IncP1 plasmid RK2) (plasmid RK2 (IncP1), UniProt P07674 1-358); assay: NMR titration; ^15N-^1H TROSY at 800 MHz of ^15N/^2D KorB (~0.1 mM dimer) titrated with unlabelled KorA (1 and 2 equivalents); 10 mM sodium phosphate pH 7.0, 100 mM NaCl, 0.1 mM EDTA, 30°C; conditions: both partners purified
T1 construct: KorB of plasmid RK2 (IncP1), 358 amino acid residues per subunit, homodimer; also called WT KorB; ^1H-KorB; source: E. coli BL21(λDE3), His-tagged fusion, purified as described previously [21]; also partially deuterated (~70% D2O M9 medium) and ^15N-labelled
T1 sequence (looked up): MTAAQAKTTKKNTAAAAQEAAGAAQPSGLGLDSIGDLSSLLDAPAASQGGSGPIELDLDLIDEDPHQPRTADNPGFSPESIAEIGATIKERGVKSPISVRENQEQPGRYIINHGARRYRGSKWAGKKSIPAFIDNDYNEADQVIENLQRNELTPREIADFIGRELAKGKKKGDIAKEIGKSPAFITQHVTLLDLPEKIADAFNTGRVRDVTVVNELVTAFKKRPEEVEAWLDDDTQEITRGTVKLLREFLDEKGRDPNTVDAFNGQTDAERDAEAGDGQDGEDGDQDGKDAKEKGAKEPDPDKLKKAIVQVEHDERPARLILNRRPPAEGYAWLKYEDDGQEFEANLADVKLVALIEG

(NΔ150)KorB = (NΔ150)KorB (Escherichia coli (expression host); …, UniProt P07674 151-358, del1-150); assay: SAXS, SANS; complex mass consistent with protein + DNA (67.5 kDa calculated); Buffer, salt, pH and temperature not given in the material; NMR at 800 MHz; SANS in 0, 65 or 100% D2O; conditions: protein: recombinant; tags: His-tag; chain copies: 2; blunt (only one strand printed; complement implied)
KorB [2] = target: T2, KorB (Escherichia coli (expression host); …, UniProt P07674 1-358); assay: NMR (15N-1H TROSY titration), SAXS, SANS; KorB dimer:OB 1:1; DBD and N-terminal peaks lost, CTD unaffected; Buffer, salt, pH and temperature not given in the material; NMR at 800 MHz; SANS in 0, 65 or 100% D2O; conditions: protein: recombinant; tags: His-tag; chain copies: 2; blunt (only one strand printed; complement implied)
KorB [3] = target: T2, KorB; assay: CD; 1 equivalent KorB; change at 280 nm; Buffer, salt, pH and temperature not given in the material; NMR at 800 MHz; SANS in 0, 65 or 100% D2O; conditions: protein: recombinant; tags: His-tag; chain copies: 2; blunt (only one strand printed; complement implied)
KorA = KorA (Escherichia coli (expression host); …, UniProt P03052 1-101); assay: CD; 1 equivalent KorA; change at 280 nm; Buffer, salt, pH and temperature not given in the material; NMR at 800 MHz; SANS in 0, 65 or 100% D2O; conditions: protein: recombinant; tags: none; chain copies: 2; blunt (only one strand printed; complement implied)
KorB;KorA = KorB;KorA (Escherichia coli (expression host); …, UniProt P07674;P03052 1-358;1-101, |); assay: NMR (15N-1H TROSY), CD, SANS; ternary KorA/KorB/OAOB complex; Buffer, salt, pH and temperature not given in the material; NMR at 800 MHz; SANS in 0, 65 or 100% D2O; conditions: protein: recombinant;recombinant; tags: His-tag;none; chain copies: 2;2; blunt (only one strand printed; complement implied)

B1: KorA (repressor from the plasmid RK2) (natural protein, plasmid RK2 (IncP1), UniProt P03052 1-101, looked up)
chain: MKKRLTESQFQEAIQGLEVGQQTIEIARGVLVDGKPQATFATSLGLTRGAVSQAVHRVWAAFEDKNLPEGYARVTAVLPEHQAYIVRKWEADAKKKQETKR
notes: KorA of plasmid RK2; used as a dimer; the domain scheme runs from residue 1 to 101; also called ^1H-KorA; ^2D-KorA; source: E. coli BL21(λDE3), without a tag, purified as before [14]
With B1 the “stoichiometry N” value [1] was 2 KorA dimers per KorB dimer.

B2: OB (dsDNA)
DNA 1: CGAGAATTTTAGCGGCTAAAAAGGGC
DNA 2: GCCCTTTTTAGCCGCTAAAATTCTCG
B2: binds ((NΔ150)KorB); binds (KorB [2]).

B3: OAOB (dsDNA)
DNA 1: GGACGAGTTTTAGCGGCTAAAGGTGTTGACGTGCGAGAAATGTTTAGCTAAACTTCG
DNA 2: CGAAGTTTAGCTAAACATTTCTCGCACGTCAACACCTTTAGCCGCTAAAACTCGTCC
B3: binds (KorB [3]); binds (KorA); binds (KorB;KorA).
